Laboratory results reported in publication PMC6706441, “B1 oligomerization regulates PML nuclear body biogenesis and leukemogenesis” (Nature Communications, 2019).

B1: full-length PML isoform IV, wild type (mammalian two-hybrid fusions) [human (by the printed UniProt code P29590-5)] / full-length PML isoform IV, wild type (mammalian two-hybrid fusions) [human (by the printed UniProt code … (parent)
chain 1: MEPAPARSPRPQQDPARPQEPTMPPPETPSEGRQPSPSPSPTERAPASEEEFQFLRCQQCQAEAKCPKLLPCLHTLCSGCLEASGMQCPICQAPWPLGADTPALDNVFFESLQRRLSVYRQIVDAQAVCTRCKESADFWCFECEQLLCAKCFEAHQWFLKHEARPLAELRNQSVREFLDGTRKTNNIFCSNPNHRTPTLTSIYCRGCSKPLCCSCALLDSSHSELKCDISAEIQQRQEELDAMTQALQEQDSAFGAVHAQMHAAVGQLGRARAETEELIRERVRQVVAHVRAQERELLEAVDARYQRDYEEMASRLGRLDAVLQRIRTGSALVQRMKCYASDQEVLDMHGFLRQALCRLRQEEPQSLQAAVRTDGFDEFKVRLQDLSSCITQGKDAAVSKKASPEAASTPRDPIDVDLPEEAERVKAQVQALGLAEAQPMAVVQSVPGAHPVPVYAFSIKGPSYGEDVSNTTTAQKRKCSQTQCPRKVIKMESEEGKEARLARSSPEQPRPSTSKAVSPPHLDGPPSPRSPVIGSEVFLPNSNHVASGAGEAEERVVVISSSEDSDAENSSSRELDDSSSESSDLQLEGPSTLRVLDENLADPQAEDRPLVFFDLKIDNESGFSWGYPHPFLI
chain 2: B1 chain 1

Variants of: B1
Assay: mammalian two-hybrid assay
Conditions: with full-length PML isoform IV, parent: 38, read off a plot, scale: fold change

response | Variant
2.8 | chain 1 F158E
3.2 | chain 1 W157E
21 | chain 1 I122P V123P
